Measured values reported in the nanobody polyreactivity screen of Harvey et al. (2022).

Test: yeast display, Sf9 membrane polyspecificity reagent, FACS + sequencing; frameworks hold sequencing errors
In short: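 Sorting gates, low and high (top ~1%), were placed on anti-HA fluorescence to track expression and on streptavidin fluorescence to track reagent binding. A clone's polyreactivity label is taken from the gate it came out of. The reagent was 10% biotinylated, detergent-solubilized Sf9 membrane, applied for 1 hour at 4 °C to galactose-induced yeast display cells.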

| Sequence | polyreactivity (PSR sort gate) |
| --- | --- |
| QVQLVESGGGLVQAGGSLRLSCAASGSIYARNAMGWYRQAPGKERELVAAIRYSGGSTYYADSVKGRFTISRDNAKNTVYLQMNSLKPEDTAVYYCAARWGVFGYYYWGQGTQVTVSS | high polyreactivity |
| QVQLVESGGGLVQAGGSLRLSCAASGTFYPNAMGWYRQAPGKERELVAAISEDGGGTYYADSVKGRFTISRDNAKNTVYLQMNSLKPEDTAVYYCAAEYYDYWYTYDYWGQGTQVTVSS | high polyreactivity |
| QVQLVESGGGLVQAGGSLRLTCAASGRTFKYYAMGWYRQAPGKERELVAAITRSGGNTYYADSVKGRFTISRDNAKNTVYLQMNSLKPEDTAVYYCAKRLGYRYPTYDYWGQGTQVSVSS | high polyreactivity |
| QVQLVESGGGLVQAGGSLRLSCAASGSTSVDYTMGWYRQAPGKESELVAAIDYNGDSTYYADSVKGRFTISRDNAKITVYLQMNRLKPEDTAVYYCAADVWTLDPDEYDYWGQGTQVTLSS | low polyreactivity |
| QVQLVESGGGLVQAGGSLRLSCAASGGTFPWYSMGWYRPATGKEREMVAGITWGGVSTYADSVKGRFTISRDNAKNTVYLQMNSLKQEDTAVYYCASRTSFTRGPWYKFYYWGQGTQVTVSS | high polyreactivity |
| QVQLVDSVVGLVQAGGSLRLSFAASGYTYHYYAMGWYRQAPGKETELVAAISGSGSSTYYADSVKGRFTISRDNAKNTVYLQMNSLKPEDTAVYYCNARGHYPRARFGYKSGSDRYWGQGTQVTVSS | high polyreactivity |
| QLQLVESGGGLVQAGGSLRLICAASGLIFFWYTMGWYRQAPGKDRELVAAIDSGGSTYYADSVKGRFTNSRDNAKYTVYLEMISLKPEDTAVYYCAADSFYLYIEYYYWGQGTQVTVSS | high polyreactivity |
| QVQLVESGGGLVQAGGSLRLSCAASGIIFTVYAMGWYRQAPGKERELVAAITSSGGRTYYADSVKGRFTISRDNAKNTVYLQMNSLKPEDTAVYYCAASIWLYRYYYWGQGTQVTVSS | high polyreactivity |
| QVQLVESGGGLVQAGGSLRLSCAASGIIFYPYTMGWYRQAPGKERELVAAINSGGSTYYADSVKGRFTISRDNAKNTVYLQMNSLKPEDTAVYYCAAEANRYSSGYDYWGQGTQVTVTS | low polyreactivity |
| QVQLVESGGGLVQAGGSLRLSCAASGRTFRYYAKGWYRQAPGKERELVAAITVTVTSTFYADSVKGRFTISRDNAKNTVYLQMNSLKPEDTAVYYCAKVDRQSPGQYYYWGQGTQVTVSS | low polyreactivity |
| QVQLVESGGGLVQAGGSLRLSCAAYGRIFLPNSMGWYIQAPGKERELVAAITWSGGSTYYADSVKGRFTISRDNAKYTVFLQMTSLIPEDTAVYYGAGRGFSYRRRSQQFDYWGLGTQVTVSS | high polyreactivity |
| QVQLVDSGGGLVQAGGSLRLSCAASGGTFTAYTMGWYRQAPGKERELVAAITGDTSTNYADSVKGRFTISRDNAKNTVYLQMNSLKPVDTAVYYCAADVPRSYWRGYDYWGQGTQVTVSS | low polyreactivity |
| QVQLVESGGGLVQAGGSLRLSCAASGLIFGPNAMGWYRQSPGKERELVAAITKSGDSTYYADSVKGRFTISRDNAKNTVYLQMNSLKPEDTAVYYCAADTTTGLYDYWGQGTQVTVSS | low polyreactivity |
| QVQLVESGGGLVQAGGSLRLSCAASGRTFYSYAMGWYRQAPGKERELVAAISASGGRTYYADSVKGRFTISRDNAKNTVYLQMNSLKPEDTAVYYCAAYPWYRMWGQGTQVTVSS | high polyreactivity |
| QVQLVESGGGLVQAGGSLRLSCAASGVYAMGWYRQAPGQEREWVAAITSVGSTNYADSVKGRFTISRDNAKNTVYLQMNSLKPEDTAVFYCNTDRDTDELDYWGQGTQVTVSS | low polyreactivity |
| QVQLVESGGGLVQAGGSLRLSCASSGFIFRWYTMGWYRQAPGKERELVAAISWSSGSTSYADSVKGRFTISRDNAKNTVYLQMNSLKPEDTAVYYCAAVWRTASTQYYYWGQGTQVTVSS | high polyreactivity |
| QVQLVESGGGIVQAGVILRLSCAATGITFWNNAMRWYRQARGKERELVATISSNGGRTYYADSVKGRFTISRDNAKNTVYLQMNSLKPEDTAVYYCKARQVLYGLYLRAYPYEYWGQGTQVTVSS | low polyreactivity |
| QVQLVESGGGLVQAGGSLRLSCAASALTFRVYAMGWYRQAPGKERELVAAISFSGSSTFYADSVKGRFTISRDNAKNTVYLQMNSMKPEDTAVYYCAAGASEAVDVYDYWGQGTQVTVSS | low polyreactivity |
| QVQLVESGGGLVQAGGSLRLSCAASGRTFSGYAMGWYRQAPGTERELVAAIDRGDGTNYADSVKGRFTISRDNAKNTVYLQMNSLKPEDTAVYYCAADYSYGSTSHTYTGFDYWGQGTQVTVSS | low polyreactivity |
| QVQLVESGGGLVQAGGSLRLSSAASGFILNRNAMGWYRQAPGKVRELVAAISKSGGSTYYADSVKGRFTISRDNAKNTVYLQMNRLKPEDTAVYYCAAYTYLGRYEARRDYWGQGTQVTVSS | high polyreactivity |
| QVQLLESGGGLDQAGGSLRLTSAASGSIFYGYAMGWYRQAPRKERELVAAISYSGDRTYYADSVKGRFTISRDNAKNTVYLQMNSLKPEDTAVYYCAARKHGGTVRGRRDYWGQGTQVTVSS | high polyreactivity |
| QVQLVESGGGLVQAGGSLRLSCAGSGSSFAWNDMGWYRHAPGIERALVAAISTSDGSTYYADSVKGRFTISRDNAKNTVYLQMNSLNPEDTAVYYCAADVTRVFYGLYTGEYDYWGLGTQVTVSS | low polyreactivity |

| Sequence | polyreactivity (PSR sort gate) |
| --- | --- |
| QVQLVESGGGLVQAGGRLRLSCAASGSTLGRYAMGWYRQAPGKERELVASITWSDDSTYYADYVKGRFTISRDNAKNTVYLQMNSLKPEDTAVYYCAAAGNLYTYRFYYWGQGTQVTVSS | low polyreactivity |
| QVQLVESGRGLVQAGGSLRLSCAASGSTFIPYVMGWYRKAPGKEREFVAAIRWSGGRTRYADSVKGRFTLSRDNAKNTVYLQMNSLKPEDTAVYYCAAYRLSKPFYKYDYWGQGTQVTVSS | high polyreactivity |
| QVQLLESGGGLVQAGGSLRLSCAASGRTFYRTAKGWYRQAPGKERELVASITRSGNTNYADSVKGRFTISRDNAKNTVYLQMNSLKPEDTAVYYCAARPWLRNKYDYWGQGTQVTVSS | high polyreactivity |
| QVQLVESGGGLVQAGGSLRLTCAASGFTFGTYAMGWYRQAPGKERELVAAITWSGGSTYYADSVKGRFTISRDNAKNTVYLQMNSLKPEDTAVYYCAAESADYNDGDYWGQGTQVTVSS | low polyreactivity |
| QVQLVESGGGLVQAGGSLRLSCAASGSIFVRNAMGWCRQAPGKERELVAAITARGGSTYYADSVKGRFTISRDNAKNTVYLQMNSLKPEDTAVYYCARSYYYRGWAQWRYDYWGQGTQVTVSS | high polyreactivity |
| QVQLVESGGGLVQAGGSLRLSCAASGFIFYYYAMGWYRQAPGKERELFAAISKSGGSTYYADSVKGRFTISRDHAKNTVYLEMNSLKPEDTAVYYCAGVVTTWPYYGFGYWGQGTQVTVSS | high polyreactivity |
| QVQLVESGGGLVQAGGSLRLSCAASGIIFSYYAMGWYRQAPGKERELVAAITWSVGSTDYADSVKGRFTISRDNAKNTVYLQMNSLKPEDTAVYYCAATITTLDWDDRYDYWGQGTQETVSS | low polyreactivity |
| QVQLVESGGGLVQAGGSLRLSCAASGFTYRNYAMGWYRQAPGKERELVAAISRGGGSTYYADSVKGRFTISRDNAKNTVYLQMNSLKPEDTAVYYCAVAYPFYVKTLFSPEADYNYWGQGTQVTVSS | high polyreactivity |
| QVQLVESGGGLVQAGGSLRISCAASGSIFGLYAMGWYRQAPGKERELVAAINQSGGSTSYADSVKGRFTISRDNAKNTVYLQMNSLKPEDTAVYYCNRVRLNSEGFDYWGQGTQVTVSS | low polyreactivity |
| QVQLVESGGGLVQAGGSLRLSCAASGFTFKAYAMGWYRQAPGKERELVAAISNSGGTTYYADSVKGRFTISRDNAKNTVYLQMNSLKPEDTAVYYCAAYQYYIPKMYYWGQGTQVTVSS | high polyreactivity |
| QVQLVESGGGLVQAGVSLRLICAASGFIFPTKVMGWYRQAPATEREFVASITWRGGGTFYADSVKGRFTISRDNAKNTVYLQMNRLKPEDTAVYYCAAGRSWSSFWKYDYWGQGTQVTVSS | low polyreactivity |
| QVQLVESGGGLVQAGGSLRLSCAASGGTFDSNAMGWYRQAPGKERELVAAISSGGSTYYADSVKGRFTISRDNAKNTVYLQMNSLKPEDTAVYYCAADSSGGASAPMDYWGQGTQVTVSS | low polyreactivity |
| QVQLVEEGGGLVQAGGTRRLSCAASGSTFTVYVMGWYRQAPGQERELVAAINLSGGRTYYADSVKGRFTISRDNAKNTVYLQMNSLKPEDTAVYYCAADGSTWGDYRTYGYWGQGTLVTVSS | low polyreactivity |
| QVQLVESGGGLVQAGGSLRLSCAASGRTFAYNAMGWYRPAPGKEREFVAGISRSGGSTYYADSVKGRFTISRDNAKNTVYLQMNSLKPEDTAVYYCAAQFYALPNVGTKYYSWGQGTQVTVSS | low polyreactivity |
| QVQLVESGGGLVQAGGSLRLSCAASGYIFRFNAMGWYRQAPGKERELVAAISRSGGRTYYADSVKGRFTISRDNAKNTVYLQMNSLKPEDTAVYYCAAVRYKGGGNQPYGYWGQGTQVTVSS | high polyreactivity |
| PVQLVESGGVLVQAGCILRLSCAASGSTFYGYAMGWYRQAPGKERELVAANTSTVITDYADSVKGRFTISRDNAKNTFYFQMNSLKPEVPAVYDCNKERATSVTAEFRGDDAYWVQGTQVTVSS | low polyreactivity |
| QVQLVESGGGLVQAGGSLRLSCAASGITFNRYALGWYRQAPGKERELVASIRWSGGSTNYADSVKGRFTISRDNGKNTVYLQMKSLKPEDTAVYYCNAGRESDDVYEGSQRIGQFDYWGQGTQVTVSS | low polyreactivity |
| QVQLVESGGGLVQAGGSLRLSCAASGSTIYTYVMGWYIQAPGKERELVAAISWSGSSTYYADSVKGRCTISRDNAKNTVYLQINSLKPEDTAVYYCNAKYRRGWWGVEYGYWGQGTQVTVSS | low polyreactivity |
| QVQLVESGGGLVQAGGSLRLSSAASGFTLYRNAMGWNRQAPGKEREFVASITRSGGSTSYADSVKGRFTISRDNAKNTVYLQMNSLKPEDTAVYYCAAAYEYYRWPSEYNYWGQGTQVTVSS | low polyreactivity |
| QVQLQESGGGLVQAGGSLRLSCAASGNIVDADIMGWYRQEPGKERELVASITDGGSTNYADSVKGRFTISRDNAKNTVYLQMNSLKPEDTAVYYCAAIAYPDIPTYFDYDSEYFYWGQGTQVTVSS | low polyreactivity |
| QVQLVESAGGLVQAGGSLRLSCAASGSIFSPYAMGWYRQAPGKERELVAAITWNGGRTYYADSVKGRFTISRDNAKNTVYLHMNSLKPEDTAVYYCTAASQSRYYYWGQGTQVTVSS | high polyreactivity |
